Legend:
GST-NDR1 [1] = target: T1, GST-NDR1 (Homo sapiens, UniProt Q15208); test: GST-NDR1 kinase assay (peptide kinase assay); assay type: biochemical
T1 construct: made in house; host or cells: E. coli BL21-DE3-pRep4
Experimental: 1 microgram of purified recombinant GST-NDR1 wild type and mutants (without further treatment or autophosphorylated for 2 h in the presence or absence of 1 mM CaCl2 and […] (Sigma)) were assayed in 20 microliter of reaction mixture containing 20 mM Tris-HCl pH 7.5, 10 mM MgCl2, 1 mM DTT, 100 microM [gamma-^32P]ATP (˜0.5 microCi/microliter), and 1 mM NDR1 substrate peptide ([…]; SEQ ID NO:22). After 30 mins incubation at 30° C., reactions were stopped with 50 mM EDTA, and 10 microliters of reaction mixture were spotted onto 2 cm^2 squares of P81 phosphocellulose paper (Whatman). These were subsequently washed for 4×5 min and 3×20 min in 1% phosphoric acid and once in acetone before counting in a liquid scintillation counter. One unit of NDR1 activity was defined as the amount which catalyses the phosphorylation of 1 nmol peptide substrate in 1 min.
Specific activity of GST-NDR1 mutants was also measured by a peptide kinase assay as described above. For this purpose, 1 microgram of purified GST-NDR1 wild type and alanine mutants were left without further treatment or autophosphorylated for 2 h in the presence or absence of 1 mM CaCl2 and […].
Target sequence in this assay (Q15208 whole entry): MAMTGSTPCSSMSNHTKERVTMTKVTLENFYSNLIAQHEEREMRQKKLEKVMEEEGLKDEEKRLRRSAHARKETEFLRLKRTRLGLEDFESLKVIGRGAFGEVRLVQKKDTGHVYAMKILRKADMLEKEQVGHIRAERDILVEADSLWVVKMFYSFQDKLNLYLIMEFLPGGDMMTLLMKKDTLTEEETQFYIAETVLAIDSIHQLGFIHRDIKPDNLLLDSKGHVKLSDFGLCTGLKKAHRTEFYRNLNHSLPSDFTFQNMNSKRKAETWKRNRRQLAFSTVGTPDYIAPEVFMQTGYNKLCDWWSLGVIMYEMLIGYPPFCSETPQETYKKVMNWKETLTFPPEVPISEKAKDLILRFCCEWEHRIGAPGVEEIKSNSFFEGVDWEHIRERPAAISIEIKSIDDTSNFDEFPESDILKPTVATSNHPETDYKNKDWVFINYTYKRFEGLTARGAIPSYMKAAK

NDR2 [2] = target: T2, NDR2 (Homo sapiens, UniProt Q9Y2H1); test: NDR2 specific kinase activity in vitro with Ca2+/S100B; assay type: biochemical; conditions: concentration dependent
T2 construct: made in house; host or cells: E. coli (inferred from b139 and b74)
T2 sequence (Q9Y2H1 whole entry, one chain of several): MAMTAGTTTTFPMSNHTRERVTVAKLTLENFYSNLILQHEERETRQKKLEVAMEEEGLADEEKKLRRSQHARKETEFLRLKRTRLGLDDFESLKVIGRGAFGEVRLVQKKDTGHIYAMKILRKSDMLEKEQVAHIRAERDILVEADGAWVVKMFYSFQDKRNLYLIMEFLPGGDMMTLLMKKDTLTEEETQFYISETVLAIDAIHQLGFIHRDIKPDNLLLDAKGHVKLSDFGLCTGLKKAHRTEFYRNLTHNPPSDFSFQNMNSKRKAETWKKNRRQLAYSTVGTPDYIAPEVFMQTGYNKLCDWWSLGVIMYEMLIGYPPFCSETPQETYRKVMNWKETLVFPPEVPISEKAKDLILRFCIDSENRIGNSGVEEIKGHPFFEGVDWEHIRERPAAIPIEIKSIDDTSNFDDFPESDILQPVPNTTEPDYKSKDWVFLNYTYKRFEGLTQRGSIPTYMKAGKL
Experimental: (§1) All other procedures (including bacterial expression, kinase assays, immunodetection and mass spectrometry) were carried out essentially as described in the Methodology section above.
(§2) The sequence conservation between NDR1 and NDR2 also encompasses the previously defined S100 binding domain of NDR1. Therefore, the in vitro effect of Ca2+/S100B on NDR2 activity was measured in a time and concentration dependent manner. Ca2+/S100B increases the rate of NDR2 autophosphorylation by ˜2-fold after 4 hours of incubation, as measured by mass spectrometry anlaysis, and it stimulates the specific NDR activity in a concentration dependent manner up to ˜4-fold. […] After in vitro incubation of GST-NDR2 in the presence and absence of Ca2+/S100B, the proteins were digested with trypsin, and the resultant mixture was analysed by ESI-MS-MS in a −79 precursor scan, measuring the mass charge ratio (m/z) of all peptide species that liberate a single phosphate group after fragmentation. The identity of 5 NDR2 derived phosphopeptides could be determined in both samples, the GST-NDR2 and the GST-NDR2/Ca2+/S100B.

GST-NDR1 [3] = test: Immunodetection of GST-NDR1 phosphorylated on Ser281 or Thr444 after in vitro autophosphorylation; assay type: biochemical, human; conditions: in vitro autophosphorylation with or without Ca2+/S100B
Experimental: Either 1 microgram GST-NDR1 or HA-NDR1 immunoprecipitated from 100 microgram COS-1 detergent extracts as described above was separated on 10% SDS-PAGE and immunoblotted 2 h at RT or overnight at 4° C. with anti-Ser281P antisera (1:1000) in the presence of 50 microg/ml competing unphosphopeptide or anti-Thr444P purified antibody (1:500). Both antibodies were detected with horseradish peroxidase-conjugated donkey anti-rabbit Ig antibody (Amersham biosciences) and developed by ECL (chemiluminescence; Amersham Pharmacia Biotech).
To reliably quantify the effect of S100B on NDR1 phosphorylation status, rabbit polyclonal antibodies were raised against phosphoepitopes comprising Ser281 or Thr444. GST-NDR1 mutants were treated essentially as described in Example 2 and detected either with anti-NDR1_C-term antiserum or polyclonal antibodies recognising NDR1 phosphorylated on Ser281 or Thr444.

NDR2 [4] = target: T2, NDR2; test: GST-NDR2 in vitro autophosphorylation with Ca2+/S100B; assay type: biochemical; conditions: after 4 hours of incubation
Experimental: as §1, §2

GST-NDR1 [5] = target: T1, GST-NDR1; test: GST-NDR1 in vitro autophosphorylation, incorporated 32P by Cerenkov counting; assay type: biochemical; conditions: on both Ser281 and Thr444
Experimental: BL21-DE3-pRep4 E. coli strain was transformed with the pGEX-2T_NDR1 wild type or mutant plasmids. BL21-DE3 is a protease-deficient E. coli strain and pRep4 is a Laclq repressor-bearing plasmid both available commercially. Optionally, if desired, an E. coli strain comprising GroESL can be used, which expresses a chaperone protein that stabilizes the kinase. Mid-logarithmic phase cells were induced with 0.5 mM isopropyl beta-D-thiogalactopyranoside (IPTG) for 4 hours at 30° C. Bacteria were lysed using a French press in the presence of 1 mg/ml lysosyme, and the fusion proteins were purified on glutathione-agarose (Amersham Pharmacia Biotech) as described by the manufacturers. Recombinant proteins were assayed for kinase activity as described below and autophosphorylation was determined after SDS-PAGE separation either by Cerenkov counting or by exposure to a PhosphorImager screen followed by analysis with ImageQuant software (Molecular Dynamics).
In brief, 1 microgram of purified GST-NDR1 (in solution ˜0.5 microM) wild type, kinase dead (K118A), and alanine mutants of phosphorylation residues Thr74, Ser281, and Thr444 were autophosphorylated for 2 hours in vitro without further additions or in the presence of 1 mM CaCl2 and 10 microM bovine S100B. Proteins were visualized on SDS gels using Coomassie Blue R-350 stained SDS-PAGE gel, and [gamma-^32P]ATP-labelled proteins were visualized by autoradiography of the gels developed on a Phosphorimager screen. The amount of incorporated ^32P was quantified by Cerenkov counting.
Target sequence in this assay (Q15208 2-465): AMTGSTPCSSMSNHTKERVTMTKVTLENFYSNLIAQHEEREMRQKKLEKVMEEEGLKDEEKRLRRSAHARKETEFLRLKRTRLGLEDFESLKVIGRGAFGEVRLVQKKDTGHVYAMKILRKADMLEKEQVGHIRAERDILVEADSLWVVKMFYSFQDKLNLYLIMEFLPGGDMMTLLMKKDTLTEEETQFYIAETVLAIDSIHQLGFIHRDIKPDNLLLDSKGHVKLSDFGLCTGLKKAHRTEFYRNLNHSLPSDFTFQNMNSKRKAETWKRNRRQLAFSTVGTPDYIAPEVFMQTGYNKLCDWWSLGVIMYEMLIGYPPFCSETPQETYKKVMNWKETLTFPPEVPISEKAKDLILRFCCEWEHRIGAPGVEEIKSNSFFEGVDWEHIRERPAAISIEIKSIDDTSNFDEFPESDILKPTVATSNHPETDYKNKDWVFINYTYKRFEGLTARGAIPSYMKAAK

HA-NDR1 = HA-NDR1 kinase assay on 12CA5 immunoprecipitates from transfected, treated COS-1 cells; assay type: cell-based, human; conditions: COS1 cells cotransfected with HA-NDR1, treated with OA; versus empty vector
Experimental: In some experiments, the cells were treated for 60 min with 1 microM okadaic acid in 0.1% N,N-dimethylformamide (DMF) (Alexis Corp.), 50 microM BAPTA-AM (1,2-bis (o-aminophenoxy) ethane-N,N,N′,N′-tetraacetic acid tetra (acetoxy-methyl)ester) in 0.1% diimethylsulfoxide (DMSO; Sigma), or 20 microM thapsigargin in 0.1% DMSO (Alomone) 24 hours after transfection.
Transfected and treated COS-1 cells were washed once with ice-cold PBS, and harvested by rubber policeman in 1 ml ice-cold PBS containing 1 mM Na3VO4 and 20 mM beta-glycerophosphate before lysis in 500 microliters of IP buffer (20 mM Tris-HCl pH 8.0, 150 mM NaCl, 1% Nonidet P-40, 10% glycerol, 1 mM Na3VO4, 20 mM beta-glycerolphosphate, 1 microM microcystin-LR, 50 mM NaF, 0.5 mM PMSF, 4 microM leupeptin, 1 mM benzamidine, and 1 tablet/10 ml IP of Complete protease inhibitors (Roche)). Lysates were centrifuged at 20 000 g for 20 min and triplicate aliquots (200 microg) of supernatant were precleared with protein A-Sepharose (Amersham Pharmacia Biotech) for 60 min and mixed subsequently for 3 h at 4° C. with 12CA5 antibody prebound to protein A-Sepharose (˜1 microg antibody bound to 2 microl beads). The beads were then washed twice with IP buffer, once for 10 min with IP buffer containing 1 M NaCl, once again for 10 min with IP buffer, and finally twice with 20 mM Tris-HCl pH 7.5 containing 4 microM leupeptin and 1 mM benzamidine. […] After 60 min incubation at 30° C., 15 microliters of supernatant were removed, and phosphate incorporation into the substrate peptide determined as described for GST-NDR1 above. […]
To test whether hMOB1 plays a role in NDR activation, myc-hMOB1 or the empty vector was cotransfected with HA-NDR1 in COS1 cells and treated with OA. […] The reactions were resolved on a 10% SDS PAGE and the radioactivity visualised by using a phosphoimager.

HA-NDR = target: T3, HA-NDR (Homo sapiens, UniProt Q15208); test: Autophosphorylation of immunoprecipitated HA-NDR with added GST-MOB or GST; assay type: biochemical; conditions: added to HA-NDR kinase reactions; GST as control
T3 construct: expressed in transfected cells; host or cells: COS-1 (HA-NDR1)
T3 sequence (Q15208 whole entry, one chain of several): as the sequence (Q15208 whole entry) above
Experimental: To test whether hMOB1 plays a role in NDR activation, myc-hMOB1 or the empty vector was cotransfected with HA-NDR1 in COS1 cells and treated with OA. 12CA5 immunoprecipitates were then assayed using the peptide kinase assay for HA-NDR kinase activity. […] GST-MOB and GST respectively was added to immunoprecipitated HA-NDR and kinase reaction were performed. The reactions were resolved on a 10% SDS PAGE and the radioactivity visualised by using a phosphoimager.

B1: S100B: bovine S100B, EF-hand Ca2+-binding protein, added with 1 mM CaCl2 (protein)
chain: SELEKAVVALIDVFHQYSGREGDKHKLKKSELKELINNELSHFLEEIKEQEVVDKVMETLDSDGDGECDFQEFMAFVAMITTACHEFFEHE
GST-NDR1 [1]
  increase in kinase activity of wild-type GST-NDR1 on addition of S100B: ~5 fold
NDR2 [2]
  stimulation of specific NDR activity (NDR2): ~4 fold
GST-NDR1 [3]
  phosphorylation of GST-NDR1 on Ser281 and Thr444 (phosphospecific antibodies): enhance phosphorylation on both Ser281 and Thr444
NDR2 [4]
  increase of the rate of NDR2 autophosphorylation: ~2 fold
GST-NDR1 [5]
  increase in autophosphorylation of wild-type GST-NDR1 on addition of S100B: ~2 fold

B2: hMOB1: human MOB1 (GI: 11691898, SEQ ID NO:5), myc-tagged, cotransfected with HA-NDR1 (protein)
chain: MSFLFSSRSSKTFKPKKNIPEGSHQYELLKHAEATLGSGNLRQAVMLPEGEDLNEWIAVNTVDFFNQINMLYGTITEFCTEASCPVMSAGPRYEYHWADGTNIKKPIKCSAPKYIDYLMTWVQDQLDDETLFPSKIGVPFPKNFMSVAKTILKRLFRVYAHIYHQHFDSVMQLQEEAHLNTSFKHFIFFVQEFNLIDRRELAPLQELIEKLGSKDR
modifications: left off: small tags and cut ends
HA-NDR1
  stimulation of OA stimulated NDR kinase activity by cotransfected myc-hMOB1: two to threefold stimulation

B3: GST-hMOB1: GST fusion of hMOB1 added to HA-NDR kinase reactions (protein)
chain: B2 chain
modifications: left off: a dimerising Fc or GST
notes: GST fusion of hMOB1 added to HA-NDR kinase reactions
HA-NDR
  effect on NDR autophosphorylation activity: stimulated NDR autophosphorylation activity

Reference: patent publication US8008452B2, “Phosphorylated Ndr kinase” (Novartis Forschungesstiftung, Zweigniederlassung Friedrich …, priority 2002, dated 2011)
